Test results reported in article PMC3568192 (Journal of molecular biology, 2012).
Where no end group is shown, it is not given here.

Key:
[1] = biological target: T1, FBF-2 (164-566) (C. elegans, UniProt Q09312 164-566); assay: pull-down
T1 sequence (looked up): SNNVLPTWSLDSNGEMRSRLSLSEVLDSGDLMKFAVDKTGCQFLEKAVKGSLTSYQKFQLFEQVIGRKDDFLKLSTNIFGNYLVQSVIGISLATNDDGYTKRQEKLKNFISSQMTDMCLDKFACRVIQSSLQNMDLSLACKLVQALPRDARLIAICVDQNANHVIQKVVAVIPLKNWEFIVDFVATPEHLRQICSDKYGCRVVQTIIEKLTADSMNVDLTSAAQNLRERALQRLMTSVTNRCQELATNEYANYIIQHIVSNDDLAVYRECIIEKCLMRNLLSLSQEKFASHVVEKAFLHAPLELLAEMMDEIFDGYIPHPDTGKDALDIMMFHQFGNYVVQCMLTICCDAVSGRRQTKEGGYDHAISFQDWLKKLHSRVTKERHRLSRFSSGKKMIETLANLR

[2] = biological target: T2, FBF-1 (164-566) (C. elegans, UniProt Q9N5M6 164-566); assay: pull-down
T2 sequence (looked up): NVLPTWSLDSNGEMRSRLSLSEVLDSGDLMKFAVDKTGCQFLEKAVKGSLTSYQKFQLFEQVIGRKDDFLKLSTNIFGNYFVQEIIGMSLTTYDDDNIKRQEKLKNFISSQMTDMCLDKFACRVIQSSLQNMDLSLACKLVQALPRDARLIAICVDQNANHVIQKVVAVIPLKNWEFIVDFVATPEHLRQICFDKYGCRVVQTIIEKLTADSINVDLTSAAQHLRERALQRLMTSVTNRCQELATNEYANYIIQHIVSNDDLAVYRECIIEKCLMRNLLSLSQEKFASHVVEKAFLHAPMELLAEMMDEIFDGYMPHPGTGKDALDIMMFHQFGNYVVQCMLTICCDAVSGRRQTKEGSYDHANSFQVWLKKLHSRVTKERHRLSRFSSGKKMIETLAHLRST

[3] = biological target: T3, FBF-2 (164-575) (C. elegans, UniProt Q09312 164-575); assay: NMR, [15N,1H]-HSQC free against bound
T3 sequence (looked up): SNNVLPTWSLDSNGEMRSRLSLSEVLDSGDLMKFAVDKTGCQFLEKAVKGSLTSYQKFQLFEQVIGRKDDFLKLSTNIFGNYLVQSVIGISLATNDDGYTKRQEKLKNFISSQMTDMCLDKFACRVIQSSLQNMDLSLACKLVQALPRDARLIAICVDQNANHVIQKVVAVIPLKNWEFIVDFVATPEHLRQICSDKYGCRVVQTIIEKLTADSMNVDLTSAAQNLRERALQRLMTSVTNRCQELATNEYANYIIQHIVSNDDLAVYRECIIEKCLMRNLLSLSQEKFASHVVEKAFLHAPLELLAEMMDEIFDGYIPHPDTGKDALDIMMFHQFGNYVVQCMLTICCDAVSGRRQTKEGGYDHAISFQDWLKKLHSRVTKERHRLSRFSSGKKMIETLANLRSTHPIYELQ

[4] = biological target: T1, FBF-2 (164-566); assay: cross-linking
[5] = biological target: T2, FBF-1 (164-566); assay: cross-linking
[6] = biological target: fluorescently labeled wild-type CPB-1(19-80) (C. elegans) (UniProt Q03571); assay: fluorescence polarisation
[7] = biological target: T3, FBF-2 (164-575); assay: fluorescence polarisation
[8] = biological target: T4, FBF-2 (164-575);MBP-CPB-1 (1-80) (Caenorhabditis elegans;Caenorhabditis …, UniProt Q09312;Q03571 164-575;1-80, |); assay: EMSA
T4 sequence 1: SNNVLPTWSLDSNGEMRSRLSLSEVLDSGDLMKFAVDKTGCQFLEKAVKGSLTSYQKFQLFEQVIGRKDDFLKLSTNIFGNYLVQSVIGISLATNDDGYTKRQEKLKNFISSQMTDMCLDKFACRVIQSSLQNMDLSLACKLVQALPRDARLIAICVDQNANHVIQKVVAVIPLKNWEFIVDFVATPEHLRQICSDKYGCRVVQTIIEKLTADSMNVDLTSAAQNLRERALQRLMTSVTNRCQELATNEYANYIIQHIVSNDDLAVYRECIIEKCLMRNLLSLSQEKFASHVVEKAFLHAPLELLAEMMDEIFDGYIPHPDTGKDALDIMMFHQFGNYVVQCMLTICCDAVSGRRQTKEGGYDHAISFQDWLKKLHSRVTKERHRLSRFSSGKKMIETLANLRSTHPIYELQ
T4 sequence 2: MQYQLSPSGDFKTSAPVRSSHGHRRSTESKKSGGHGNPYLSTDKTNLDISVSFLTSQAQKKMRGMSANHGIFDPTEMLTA

[9] = biological target: T5, FBF-2 (164-575) (Caenorhabditis elegans, UniProt Q09312 164-575); assay: EMSA
T5 sequence: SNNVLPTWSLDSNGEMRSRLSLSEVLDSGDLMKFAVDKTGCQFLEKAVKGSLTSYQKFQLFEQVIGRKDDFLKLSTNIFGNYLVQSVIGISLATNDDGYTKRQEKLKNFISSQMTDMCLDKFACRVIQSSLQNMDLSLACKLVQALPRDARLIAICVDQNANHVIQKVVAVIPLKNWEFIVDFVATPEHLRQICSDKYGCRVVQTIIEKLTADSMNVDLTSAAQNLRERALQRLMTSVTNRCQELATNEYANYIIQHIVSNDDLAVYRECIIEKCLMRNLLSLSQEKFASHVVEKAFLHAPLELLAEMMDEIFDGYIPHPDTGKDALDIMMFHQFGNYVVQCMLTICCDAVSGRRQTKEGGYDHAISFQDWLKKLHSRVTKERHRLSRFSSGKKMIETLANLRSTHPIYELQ

Question: Does SGGHGNPYLSTDKTNLDISVSFLTSQAQK (domain or fragment, C. elegans, UniProt Q03571 32-60, looked up) [CPB-1(32-60)] bind [1]?
Answer: binds

Question: Does SGGHGNPYLSTDKTNLDISVSFLTSQAQK (domain or fragment, C. elegans, UniProt Q03571 32-60, looked up) [CPB-1(32-60)] bind [2]?
Answer: binds

Question: Does SGGHGNPYLSTDKTNLDISVSFLTSQAQKKMRGMSANHGIFDPTEMLTA (domain or fragment, C. elegans, UniProt Q03571 32-80, looked up, also: 15N labeled) [15N-labeled CPB-1(32-80)] bind [3]?
Answer: binds

B1: CPB-1(1-80) (domain or fragment, C. elegans, UniProt Q03571 1-80, looked up)
chain: MQYQLSPSGDFKTSAPVRSSHGHRRSTESKKSGGHGNPYLSTDKTNLDISVSFLTSQAQKKMRGMSANHGIFDPTEMLTA
Question: B1 was tested. Which “stoichiometry N” value [4] did it give?
Answer: 1

Question: And the “stoichiometry N” value [5]?
Answer: 1

B2: FBF-2 (164-575) (domain or fragment)
chain: SNNVLPTWSLDSNGEMRSRLSLSEVLDSGDLMKFAVDKTGCQFLEKAVKGSLTSYQKFQLFEQVIGRKDDFLKLSTNIFGNYLVQSVIGISLATNDDGYTKRQEKLKNFISSQMTDMCLDKFACRVIQSSLQNMDLSLACKLVQALPRDARLIAICVDQNANHVIQKVVAVIPLKNWEFIVDFVATPEHLRQICSDKYGCRVVQTIIEKLTADSMNVDLTSAAQNLRERALQRLMTSVTNRCQELATNEYANYIIQHIVSNDDLAVYRECIIEKCLMRNLLSLSQEKFASHVVEKAFLHAPLELLAEMMDEIFDGYIPHPDTGKDALDIMMFHQFGNYVVQCMLTICCDAVSGRRQTKEGGYDHAISFQDWLKKLHSRVTKERHRLSRFSSGKKMIETLANLRSTHPIYELQ
Question: For B2, which Kd [6] is on record?
Answer: 49 nM

B3: FBF-2 (164-575) Y479A (domain or fragment)
chain: SNNVLPTWSLDSNGEMRSRLSLSEVLDSGDLMKFAVDKTGCQFLEKAVKGSLTSYQKFQLFEQVIGRKDDFLKLSTNIFGNYLVQSVIGISLATNDDGYTKRQEKLKNFISSQMTDMCLDKFACRVIQSSLQNMDLSLACKLVQALPRDARLIAICVDQNANHVIQKVVAVIPLKNWEFIVDFVATPEHLRQICSDKYGCRVVQTIIEKLTADSMNVDLTSAAQNLRERALQRLMTSVTNRCQELATNEYANYIIQHIVSNDDLAVYRECIIEKCLMRNLLSLSQEKFASHVVEKAFLHAPLELLAEMMDEIFDGAIPHPDTGKDALDIMMFHQFGNYVVQCMLTICCDAVSGRRQTKEGGYDHAISFQDWLKKLHSRVTKERHRLSRFSSGKKMIETLANLRSTHPIYELQ
Question: Which fold increase in Kd relative to wild-type FBF [6] does the source give for B3 here?
Answer: > 60 fold

B4: FBF-2 (164-575) T485A (domain or fragment)
chain: SNNVLPTWSLDSNGEMRSRLSLSEVLDSGDLMKFAVDKTGCQFLEKAVKGSLTSYQKFQLFEQVIGRKDDFLKLSTNIFGNYLVQSVIGISLATNDDGYTKRQEKLKNFISSQMTDMCLDKFACRVIQSSLQNMDLSLACKLVQALPRDARLIAICVDQNANHVIQKVVAVIPLKNWEFIVDFVATPEHLRQICSDKYGCRVVQTIIEKLTADSMNVDLTSAAQNLRERALQRLMTSVTNRCQELATNEYANYIIQHIVSNDDLAVYRECIIEKCLMRNLLSLSQEKFASHVVEKAFLHAPLELLAEMMDEIFDGYIPHPDAGKDALDIMMFHQFGNYVVQCMLTICCDAVSGRRQTKEGGYDHAISFQDWLKKLHSRVTKERHRLSRFSSGKKMIETLANLRSTHPIYELQ
Question: For B4, which Kd [6] is on record?
Answer: 1260 nM

B5: FBF-2 (164-575) I480A (domain or fragment)
chain: SNNVLPTWSLDSNGEMRSRLSLSEVLDSGDLMKFAVDKTGCQFLEKAVKGSLTSYQKFQLFEQVIGRKDDFLKLSTNIFGNYLVQSVIGISLATNDDGYTKRQEKLKNFISSQMTDMCLDKFACRVIQSSLQNMDLSLACKLVQALPRDARLIAICVDQNANHVIQKVVAVIPLKNWEFIVDFVATPEHLRQICSDKYGCRVVQTIIEKLTADSMNVDLTSAAQNLRERALQRLMTSVTNRCQELATNEYANYIIQHIVSNDDLAVYRECIIEKCLMRNLLSLSQEKFASHVVEKAFLHAPLELLAEMMDEIFDGYAPHPDTGKDALDIMMFHQFGNYVVQCMLTICCDAVSGRRQTKEGGYDHAISFQDWLKKLHSRVTKERHRLSRFSSGKKMIETLANLRSTHPIYELQ
Question: With B5 as the binder, how does the Kd [6] read?
Answer: 778 nM

B6: CPB-1(19-80) (domain or fragment, C. elegans, UniProt Q03571 19-80, looked up)
chain: SSHGHRRSTESKKSGGHGNPYLSTDKTNLDISVSFLTSQAQKKMRGMSANHGIFDPTEMLTA
Question: Which IC50 [7] does the source give for B6 here?
Answer: 1150 ± 50 nM

B7: CPB-1(19-80) L47A (domain or fragment, C. elegans, UniProt Q03571 19-80, looked up)
chain: SSHGHRRSTESKKSGGHGNPYLSTDKTNADISVSFLTSQAQKKMRGMSANHGIFDPTEMLTA
Question: Does B7 bind [7]?
Answer: binds

B8: CPB-1(19-80) T45A (domain or fragment, C. elegans, UniProt Q03571 19-80, looked up)
chain: SSHGHRRSTESKKSGGHGNPYLSTDKANLDISVSFLTSQAQKKMRGMSANHGIFDPTEMLTA
Question: Does B8 bind [7]?
Answer: binds

B9: CPB-1(19-80) K44A (domain or fragment, C. elegans, UniProt Q03571 19-80, looked up)
chain: SSHGHRRSTESKKSGGHGNPYLSTDATNLDISVSFLTSQAQKKMRGMSANHGIFDPTEMLTA
Question: Does B9 bind [7]?
Answer: binds

B10: CPB-1(19-80) I49A (domain or fragment, C. elegans, UniProt Q03571 19-80, looked up)
chain: SSHGHRRSTESKKSGGHGNPYLSTDKTNLDASVSFLTSQAQKKMRGMSANHGIFDPTEMLTA
Question: Does B10 bind [7]?
Answer: binds

B11: CPB-1(19-80) L40A (domain or fragment, C. elegans, UniProt Q03571 19-80, looked up)
chain: SSHGHRRSTESKKSGGHGNPYASTDKTNLDISVSFLTSQAQKKMRGMSANHGIFDPTEMLTA
Question: Does B11 bind [7]?
Answer: binds

Question: With CGAAAUAAACAUUUUGUACCAUUCAGUC (ssRNA) [cyb-1 RNA] as the binder, how does the Kd [8] read?
Answer: 5.8 nM

Question: What about the Kd [9] of the same binder?
Answer: 24 nM
